This is an account of results in the nanobody polyreactivity screen of Harvey et al. (2022).

A short description of the series: yeast display, Sf9 membrane polyspecificity reagent, FACS + sequencing; frameworks hold sequencing errors. The method, boiled down: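 Nanobodies from a synthetic yeast display library (Saccharomyces cerevisiae BJ5465), induced 36–48 hours with galactose, were stained 1 hour at 4 °C with 10% biotinylated, detergent-solubilized Sf9 membrane reagent, enriched on streptavidin microbeads, then FACS-sorted. Anti-HA (expression) and streptavidin (reagent binding) fluorescence set low and high (top ~1%) gates. Polyreactivity labels come from the gate of origin. Genes were colony-PCR amplified, MiSeq 2 × 250 sequenced and filtered by CDR length.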
Turning to “QVQLVESGGGLVQAGCSLRLSCAASGSTFFPNGMGWYRQAPGKERELVAAITQDGGSTYYADSVKGRFTISRDNAKNTVYLQMNSLKPEDTAVYYCAASAGPYYEYGYWGQGTQVTVSS”, the “polyreactivity (PSR sort gate)” value is given as “low polyreactivity”. The value for “QVQLVESGGGLVQAGCSLRLSCAASGSTFFRYAMGWYRQAPGKERELVAAITSGGNTYYADSVKGRFTISRDNAKITVYLQMNSMKPEDTAVYYCAADVYHWIHEYDYWGQGTQVSVSS” was “low polyreactivity”; that for “QVQLVESGGGLVQAGCSLRLSCAASGSTFRKYAMGWYRQAPGKEREFVAAITWSTGTTYYADSVKGRFTISRDNAKNTVYLQMNSLKPEDTAVYYFAADSQPPHELYESIEHESWGQGTQVTVSS” was “low polyreactivity”.

Turning to “QVQLVESGGGLVQAGCSLRLSCAASGSTFRSYAMGWYRQAPGKERELVASISGDGDSTYYADSVKGRFTISRDNAKNTVYLQMNSLKPEDTAVYYCNKGLHNGEVDYDYWGQGTQVTVSS”, the “polyreactivity (PSR sort gate)” value is listed as “low polyreactivity”.

Consider “QVQLVESGGGLVQAGCSLRLSCAASGSTFWFNGMGWYRQAPGKERELVAVITFSTGSTSYADSVKGRFTISRDDAKNTVYLQMNSLKAEDTAGYYCAAEYVIYYCFEWLDLDYWGQGTQVTVSS”, for which the “polyreactivity (PSR sort gate)” value was “high polyreactivity”. The value for “QVQLVESGGGLVQAGCSLRLSCAASGYMGWYRQAPGKERELVATISGSGGSTYYADSVKGRFTISRDNAKNTVYLQMNSLKPEDTAVYYCTTEIWGVNRSGYDYWGQGTQVTVSS” was “low polyreactivity”. The value for “QVQLVESGGGLVQAGCSLRLSCAASGYTSRRNVMGWYRQAPGNERELVAAINSAGSTTYADSVKGRFTISRVNAKNTVYLQMNSLKPEDTAVYYCAASVYTYNYDLHKSYYLGQGTQVTVSS” was “high polyreactivity”; that for “QVQLVESGGGLVQAGCSLRLSCASSGRTFSEYAMGWYRQAPGKERELVAAISKGGGSTYYADSVKGRCTISRDNAKNTVYLQMNSLKPEDNAVYYCAKSSHAREYYYWGQGTQVTVSS” was “low polyreactivity”. The value for “QVQLVESGGGLVQAGCSLRLSCASSGSTFEYYAKGRYRQAPGKERELGAAINGIGGSTTYADSVKGRFTISRDNAKNNVYFQMNSLKPEDTAVYYCNADVARSNSQASAYDYWGQGTQVTVSS” was “low polyreactivity”. Turning to “QVQLVESGGGLVQAGCSLRLSCDASGSIYKYYSMGWYRQAPGKERELVAAISKNGGSTYYADSVKGRFTISRDNAKYTVYLQMNSLKPEDTAVYYCAAEEGYRWVRYNYWGQGTQVTVSS”, the “polyreactivity (PSR sort gate)” value was “high polyreactivity”. The value for “QVQLVESGGGLVQAGCSLRLSSAASGSIFWVNAMGWYRQAPGQERELVAAITWSAGSTYYADSVKGRFTISRDNAKYTVYVEMNSLKPEDTAVYYCAAGGAWYYWTLDYWGLGTQVTVSS” was “low polyreactivity”; that for “QVQLVESGGGLVQAGCSLRLSSAASGSTFRANAMGWYRQAPGKERELVAAITSGGSTNYADSVKGRFTISRDNAKNTVYLQMNRRKPEDTAVYYCADESYQEHSFYVYYGYDYWGQGTQVTVSS” was “low polyreactivity”; that for “QVQLVESGGGLVQAGCSLRLSWAASGRTFFSNAMGWYRQAPGKERELVAAISNGDNTYYADSVKGRFTISRDNAKNTVYLQMNSLKPEDTAVYYCAKDYRWVWRKYGYWGQGTQVTVSS” was “low polyreactivity”.

Consider “QVQLVESGGGLVQAGGCLRLSCAASGFTFKTYAMGWYRQAPGKEREFVAAITTRVGSTYYADSVKGRFSISRDNAKNTVYLQMISLKPEDTAVYYCNYNFNYPYYRYGYWGQGTQVTVSS”, for which the “polyreactivity (PSR sort gate)” value was “high polyreactivity”. The entry for “QVQLVESGGGLVQAGGCLRLSCAASGSSFGYNGMGWYSQAPGKEREVVAAISSGGNTYYGDSVNGRFTISRDNAKNTVYLQMNSLKPEDTAVYYCNADYVASGYDFDEGYWGQGTQVTVST” is “low polyreactivity”; for “QVQLVESGGGLVQAGGCLRLSCDASGITFDYYAMGWYRQAPVKESELVAAITNDGRTYNADSVKGRFTISLDNAKNTVYLQMNSLKPEDTADYYCARLTYYVNGRYDYWGQGTQVTVSS” it is “low polyreactivity”; for “QVQLVESGGGLVQAGGGLRLSCAACGSIFVYYVMGWYRQAPGKERELVAAINSDGDGTYYADSVKGRFTISRDNAKNTVYLQMNSLKPEDTAVYYCNALNPKSYDYWGQGTQVTVSS” it is “low polyreactivity”. The value for “QVQLVESGGGLVQAGGGLRLSCAASGRIFFYAMGWYRQAPGKQRELVAAISWSGGSTYYADSVKGRFTISRDNAKNTVYLQMNSLKPEDTAVYYCAADYEGWGYDYRGDYWGQGTQLTVSS” was “low polyreactivity”; that for “QVQLVESGGGLVQAGGGLRLSCAASGRTFYIYAMGWYRQAPGKERELVAAISWRGGSTYYADSVKGRFTISRDNAKNTGYLQMNSLKPEDTAVYYCAKVYARTVGWFNYWGQGTQVTVSS” was “high polyreactivity”; that for “QVQLVESGGGLVQAGGGLRLSCAASGSILPEYAMGWYRQAPGKERELVAAITTSGGSTYYADSVKGRFTISRDNAKNTVYLQMNSLKPEDTAVYYCAVEYLVYLDYTYDYWGQGTQVTVSS” was “low polyreactivity”. The entry for “QVQLVESGGGLVQAGGGLRLSCAASGTFKRNAMGWYRQAPGKERELVATITRTGSTTYADSVKGRFTISRDNAKNTVYLQMNSLKPEDTAVYYCNRVTKEYGLRQYYYWGQGTQVTVSS” is “low polyreactivity”; for “QVQLVESGGGLVQAGGGLRLSCAASGTFKRNAMGWYRQAPGKERELVATITRTGSTTYADSVKGRFTISRDNAMNTVYLQMYSQKPEDTAVYYCAAGYPPEDPEDYWGQGTQVTVSS” it is “low polyreactivity”. For “QVQLVESGGGLVQAGGILRISCAASGRTSYWYAMAWYRQAPGKERELVADISWSGGSTYYADSVKGRFTISRDNAKNTVYLQMNSLNPEDTAVYYCIGAEQKYSIYYAFDTGPYDYWGQGTQVTVSS”, the “polyreactivity (PSR sort gate)” value is recorded as “low polyreactivity”. The value for “QVQLVESGGGLVQAGGILRISCAASGSTFGWYTMGWYRQAPGKERELVAAITSRGTRTSYADSVTGRFTISRDIAKNTVYLQMNSLKTEDTAVYYCAARVFRGLGEYYWGQGTQVTVSS” was “high polyreactivity”. The entry for “QVQLVESGGGLVQAGGILRLICAASGSTFSTYAMGWYRPAPGKERELVAAIRFSGGTTYYADSVKGRFTISRDNAKNSVYLQMYCLKPEDTAVYYCAAVYISRNFFGRARGDYWGQGTEVTVSS” is “low polyreactivity”.

With “QVQLVESGGGLVQAGGILRLSCAAAGFIFYRYAMGWYREAPGKEREFVAAISRSGGSTYYADSVKGRFTISRDNAKNTVYLQMNSLKPEDTAVYYCAAGRVTISYFQDRLTTYDYWGQGTQVTVSS”, the “polyreactivity (PSR sort gate)” value is “high polyreactivity”. With “QVQLVESGGGLVQAGGILRLSCAASGFIFWDYAMGWYRQAPGTERELVADISDSGGDTYYADSVKGRFTISRDNAKNTVYLQMNSLKPEDTAVYYCAADVELWVFRGQQYDYWGQVTQVTVSS”, the “polyreactivity (PSR sort gate)” value is “low polyreactivity”. The entry for “QVQLVESGGGLVQAGGILRLSCAASGFIFYFYAMGWYRQAPGKERELVAAISWSGGSTYYADSVKGRFTISRDNAKINVYLQMNSLKAEDTAVYFCAADLYHKYDYWGQGTQVTVSS” is “low polyreactivity”.

As to “QVQLVESGGGLVQAGGILRLSCAASGFTFGPNTMGWNRQAPGKERELVAAISRSGGSTYYADSVKGRFTISRDNAKNTVYLQMNSLNPEDTAVYYCAAYSPLSGGRMDYWGQGTQVNVSS”, the “polyreactivity (PSR sort gate)” value is listed as “high polyreactivity”.

Take “QVQLVESGGGLVQAGGILRLSCAASGFTFISNAMGWYRQAPGKERELVAAISSSGGRTYYADSVKGRFTISRDNAKNTVYLQMNRLKPEDTAVYYCNADRSLLYSRKIEYDYWGQGTQVTVSS”: the “polyreactivity (PSR sort gate)” value was “low polyreactivity”. The value for “QVQLVESGGGLVQAGGILRLSCAASGFTFLAYAMGWYRQAHGKERELVAAISAYSGRTRYADSVKGRFTISRDNAKNTVYLQMNSLKPEDTAVNYCAARYRGTYRRDYWGQGTQVTVSS” was “high polyreactivity”; that for “QVQLVESGGGLVQAGGILRLSCAASGFTFTYYAMGWYIQAPGKERELVAAITRDDSTNYADSVKGRFTISRDNAKNTVYLQMNSLKPEDTAVYYCAADSWYPSYGYWGQGTQVTVSS” was “low polyreactivity”; that for “QVQLVESGGGLVQAGGILRLSCAASGIIFDTNAMGWYRQAPGKERELVASISKRGGSTYYADSVKGRFTISRDNAKNTVYFQMNSLKPEDTAVYYCNALRRRLYHDDYWGQGTQVTVSS” was “high polyreactivity”. The value for “QVQLVESGGGLVQAGGILRLSCAASGIIFRVNAMGWYRKAPGKERELVAAISGSGGRTYYADSVKGRFTISRDNAKNTVYLQMNSVKPEDTAVYYCAAHLLHYRGDYWGQGTQETVSS” was “high polyreactivity”; that for “QVQLVESGGGLVQAGGILRLSCAASGIIFVSYDRGWYRQAPGKERELVAAINRGGRTYYADSVKGRFTISRDNAKNTVYLQMNSLKPEDTAVYYCAAQFHFRPFSWTYDYWGQGTQVTVSS” was “high polyreactivity”; that for “QVQLVESGGGLVQAGGILRLSCAASGITFRCYAMVWYRQAPGKERELVAAITTGGSTKYADSVKGRFTISRDNAKKSVYLQMNSLKPEDTAVYYCAARGRYAGGYWGQGTQVTVSS” was “high polyreactivity”.

As to “QVQLVESGGGLVQAGGILRLSCAASGITFRYYAMGWYRQAPGKERELVAAITGNGGGTYADSVKGRFTISRDTAKYTGYLQMNSLKPEVTAVNYCSADYGRRWGYDYWGQGTQVTVSS”, the “polyreactivity (PSR sort gate)” value is “low polyreactivity”. The entry for “QVQLVESGGGLVQAGGILRLSCAASGITFVRNAMGWYRQAPGKDREFVAAINSIVGRTYYADSVKGRFTISRDNAKNTVYLQMNSLKPEDTAVYDCAADSNVRYGMDYWGLGTQVTVSS” is “low polyreactivity”. The entry for “QVQLVESGGGLVQAGGILRLSCAASGLIFGYYDMGWYRQARGKEREFVAGITYRGSSTYYADSVKGRFTISRDNAKNTVYLQMNSLKPEDTAVYYCAKYKRKKLTTNYYYWGQGTQVTVSS” is “high polyreactivity”; for “QVQLVESGGGLVQAGGILRLSCAASGLIFIGYAMGWYRQAPGKERELVASIRGVGSTNYADSVKGRFTISRDNAKNTVYLQMNSLKPEDTAVYYCATSVDRALYTQTRGDYDYWGQGTQVTVSS” it is “low polyreactivity”; for “QVQLVESGGGLVQAGGILRLSCAASGLIFITYAMGWYRQAPGKERELVATITLRGGSTYYADSVKGRFTISRDNAKNTVYLQMNSLKPEDTAVYYCAADVGYWGRSRGYPSDDYDYWGQGTQVTVSS” it is “low polyreactivity”.
